The target of the assay is MelA1 (Candidatus Melainabacteria bacterium isolate SJ512). The assay is described as follows: SEC; size-exclusion chromatography of MelA1; column and buffer not told. A general note: In gel filtration, larger molecules generally elute earlier.

As a reminder, the stoichiometry N is a count of units in the complex or per binding partner. For MelA1 (natural protein), the stoichiometry N was 2.

The record behind these values is paper doi:10.1101/2025.10.31.685832.
